The experiment deals with T1, Saccharomyces cerevisiae eIF4E (S. cerevisiae, UniProt P07260 1-213, ^15N labeled).
T1 construct: eIF4E of Saccharomyces cerevisiae; source: E. coli BL21-star, purified (nickel resin, TEV cleavage, m^7G cap resin)
T1 sequence (looked up): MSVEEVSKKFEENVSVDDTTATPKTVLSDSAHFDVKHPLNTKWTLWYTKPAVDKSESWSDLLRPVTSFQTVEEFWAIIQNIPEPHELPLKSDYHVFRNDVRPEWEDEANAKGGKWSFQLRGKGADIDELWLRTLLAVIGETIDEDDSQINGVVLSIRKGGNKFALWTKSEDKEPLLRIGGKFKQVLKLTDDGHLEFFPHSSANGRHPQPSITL
Put plainly: NMR titration; ^15N HSQC of 200 μM ^15N S. cerevisiae eIF4E with 250 μM m^7GTP; peptide added to 1 mM; 50 mM phosphate pH 6.5, 50 mM KCl, 298 K, 900 MHz. The settings on record: both partners purified.

B1: 4E-BP1 peptide (amino acids 51–67) (peptide)
peptide: RIIYDRKFLMECRNSPV
notes: human 4E-BP1, amino acids 51–67; also called human 4E-BP1 amino acids 51–67; source: synthetic peptide (Elim Bio)
As to B1, the binding result is given as “binds”.
